According to publication PMC2527117 (The Journal of Biological Chemistry, 2008):

Target: the molecule itself
Test: SEC

B1: PfUIS3 soluble domain (residues 83-229) (domain or fragment, Plasmodium falciparum, UniProt Q8IEU1 83-229, looked up)
chain: YYGYKKSREDDLYYNKYLEYRNGEYNIKYQDGAIASTSEFYIEPEGINKINLNKPIIENKNNVDVSIKRYNNFVDIARLSIQKHFEHLSNDQKDSHVNNMEYMQKFVQGLQENRNISLSKYQENKAVMDLKYHLQKVYANYLSQEEN
B1 was tested, and the “stoichiometry N” value was 2.
